Source: patent US20230374090A1 (SURROZEN OPERATING, published 2023)
Where a chain is given by its changes, count along the chain named.

T1: human ASGR1 (human, UniProt P07306 62-291, limits assumed)
T1 construct: also called asialoglycoprotein receptor 1; hASGR1
T1 sequence (looked up): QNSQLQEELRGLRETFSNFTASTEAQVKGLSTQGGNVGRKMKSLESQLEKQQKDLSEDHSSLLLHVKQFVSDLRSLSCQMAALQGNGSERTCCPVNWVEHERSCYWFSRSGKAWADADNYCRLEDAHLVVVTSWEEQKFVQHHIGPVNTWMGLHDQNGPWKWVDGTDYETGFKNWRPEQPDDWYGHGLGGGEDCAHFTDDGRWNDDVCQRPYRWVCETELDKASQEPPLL

T2: HuASGR1-CBD_P07306_154-291 (human)
T2 construct: also called human ASGR1-CBD
T2 chain: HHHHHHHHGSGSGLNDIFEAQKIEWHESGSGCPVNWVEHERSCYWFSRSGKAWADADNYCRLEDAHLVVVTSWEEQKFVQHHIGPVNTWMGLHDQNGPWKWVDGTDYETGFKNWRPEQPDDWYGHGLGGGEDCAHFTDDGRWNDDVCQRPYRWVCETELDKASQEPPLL

B1: 8M24 humanized L1H1 (antibody, V domains shown)
VH: EVQLVQSGAEVKKPGSSVKVSCKASGYTFTNYGINWVRQAPGQGLEWMGEIFPRSDNTFYAQKFQGRVTITADKSTSTAYMELSSLRSEDTAVYYCARKGRDYGTSHYFDYWGQGTTVTVSS
VL: DIQMTQSPSSLSASVGDRVTITCRISENIYSNLAWYQQKPGKAPKLLIYAAINLADGVPSRFSGSGSGTDFTLTISSLQPEDFATYYCQHFWGTPFTFGQGTKLEIK
notes: also called 8M24 humanized 1
B2: 8M24 Fab (L1H1 version) (Fab, V domains shown)
VH: B1 VH
VL: DIQMTQSPSSLSASVGDRVTITCRISENIYSNLAWYQQKPGKAPKLLIYAAINLADGVPSRFSGSGSGTDFTLTISSLQPEDFATYYCQHFWGTPFTFGQGTKLEIKR
notes: Heavy chain entry includes a C-terminal hexa-histidine tag; also called 8M24L1 Light-chain + 8M24H1 Heavy-chain; SZP19057+19056
B3: 8M24 humanized L2H2 (antibody, V domains shown)
VH: B1 VH with M48I, V68A, I70L, V118L
VL: B1 VL with I48V, A84G
notes: also called 8M24 humanized 2

Key:
human ASGR1 = biological target: T1, human ASGR1; test: kinetic binding to human ASGR1, IgG1 format; method and unit inferred
[1] = biological target: T2, HuASGR1-CBD_P07306_154-291; test: size-exclusion chromatography of the mixed proteins (1.1:1 molar ratio)
Experimental: Purified […] and 8M24 Fab were mixed at 1.1:1 molar ratio (little excess of the HuASGR1-CBD), and incubated with carboxy-peptidase A and B at a w/w ratio of 100:1 for over-night at 4° C. Complex formation was confirmed by observation of a single-major peak on SuperdexS200 Increase (10/300 GL) column pre-equilibrated in HBS. Fractions containing complexes were further checked by SDS-PAGE and concentrated to ˜20 mg/mL for crystallization screens. […] 96-well plate crystal screening experiments were periodically monitored manually via a DiscoveryV20 stereomicroscope (Zeiss USA), and crystals were frozen for data collection by plunging into liquid nitrogen in the presence of various cryo-protectants (typically 15 to 30% v/v of glycerol or ethyleneglycol). […] Structure of HuASGR1-CBD:8M24 complex was determined by molecular replacement method using Phaser [Phaser crystallographic software. McCoy A J, Grosse-Kunstleve R W, Adams P D, Winn M D, Storoni L C, and Read R J. (2007) J Appl Crystallogr 40, 658-674] with poly-alanine model of published structure of ASGR1-CBD [PDB code: SJPV; Efficient Liver Targeting by Polyvalent Display of a Compact Ligand for the Asialoglycoprotein Receptor. […]

Binder | Kd (human ASGR1) | binding result [1]
B1 | 0.00573 nM | –
B2 | – | binds
B3 | 0.11 nM | –
